± gives the half width of the 95% confidence interval.
Assays:
[1] = folding stability dG unfold from chymotrypsin proteolysis; higher = more stable
In short: (§1)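 K50 was inferred by Bayesian fitting of sequencing counts obtained after protease digestion of designed mini-proteins. Unfolding free energy was derived by comparison with a sequence-predicted unfolded-state K50 and a shared folded-state K50, for each protease or both combined. The mini-proteins were under 80 residues, had no cysteine, were carried in a PA-tagged cDNA display construct, and were kept only if AlphaFold2 dimer inter-PAE exceeded 15.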

[2] = folding stability dG unfold (combined trypsin and chymotrypsin); higher = more stable
In short: as §1

[3] = folding stability dG unfold from trypsin proteolysis; higher = more stable
In short: as §1

Row | Sequence | folding stability dG unfold [1] | folding stability dG unfold [2] | folding stability dG unfold [3]
1 | SAGGSEFPLRITDIHILGGYIVITFQVPPGLDKLEIKIKIELGGKPIEVTMEYTPGNGYMTMIIRLSAGGSA [r2_261_TrROS] | 5.52 ± 0.14 kcal/mol | 5.57 ± 0.31 kcal/mol | 4.46 ± 0.21 kcal/mol
2 | SAGGSEITEEEAEKLKELFPNADITVEKVKPGETKTFPNGFRIEKTEDGYRVTVTLPNGEKLEFPVSAGGSA [r2_166_TrROS_Hall] | 1.37 ± 0.053 kcal/mol | 1.33 ± 0.11 kcal/mol | 1.1 ± 0.043 kcal/mol
3 | SAGGSELKPGDLVVRIEIKVEVEEVRVNENGEVEVKLRVEIRIEVRPLPPPPEPSEEELLNPDGEESAGGSA [r2_495_TrROS_Hall] | 1.89 ± 0.12 kcal/mol | 2.33 ± 0.27 kcal/mol | 2.74 ± 0.27 kcal/mol
4 | SAGGSELTLTVKVTVTVEVNGKTFTVEATLTLRFRPAPPPPKVRLERDADGNLRVTDANGKTRELRFSAGGS [r16_136_TrROS_Hall] | 2.8 ± 0.1 kcal/mol | 2.61 ± 0.23 kcal/mol | 2.42 ± 0.17 kcal/mol
5 | SAGGSEVTLKVKVRRKVFKDGKLVAEEEVEKEVRVKLPPPPKIELSPELRKALEENDLEKIKKALESAGGSA [r2_196_TrROS_Hall] | 1.74 ± 0.053 kcal/mol | 1.62 ± 0.11 kcal/mol | 1.43 ± 0.066 kcal/mol
6 | SAGGSEWQPIYEFDLPGKKIKVYMPPDGNYRIEVEKKGKPVNFWVPPNMSPSSIDNMLDQAKEQLNSAGGSA [r2_243_TrROS] | 0.339 ± 0.16 kcal/mol | 0.343 ± 0.26 kcal/mol | -0.0661 ± 0.25 kcal/mol
7 | SAGGSFKIHWFDDPEAAEEAAKDMDPGKIIILPDPKNPKYYIVIVVKDKIFRYEIDNGNIKIEPIPSAGGSA [r2_280_TrROS] | 2.3 ± 0.029 kcal/mol | 2.11 ± 0.08 kcal/mol | 1.86 ± 0.072 kcal/mol
8 | SAGGSFTSEPNPNAPPDQPETITDPSKGVTTEVYFDTEKGTVSTTTTTTGDGTPTTSTSTTAIDPAAASAGG [r13_851_JUSTAS] | 1.37 ± 0.085 kcal/mol | 1.34 ± 0.18 kcal/mol | 1.33 ± 0.15 kcal/mol
9 | SAGGSGATYLSKYEIPLPNGKKLTIIEAYKNPETDLILYIAKTDDGTEYPFVYPSSWSPEDAIKALISSAGG [r13_470_TrMRF] | 2.91 ± 0.034 kcal/mol | 2.69 ± 0.086 kcal/mol | 2.25 ± 0.082 kcal/mol
10 | SAGGSGKIKEAVEAAIENPGKTVEVTVERPDGYPVKIKVDPKTGKITLEVIHPDGTTSRKEFEIKPSAGGSA [r2_263_TrMRF] | 0.669 ± 0.046 kcal/mol | 0.83 ± 0.17 kcal/mol | 0.807 ± 0.071 kcal/mol
11 | SAGGSGMEAKLLEEALEAELKAKGYKVEVKVTVTKSFSVQEGGLPSSTTTVTIEITVRDPKTGKKVSAGGSA [r2_434_JUSTAS] | 3.09 ± 0.1 kcal/mol | 2.56 ± 0.16 kcal/mol | 1.62 ± 0.09 kcal/mol
12 | SAGGSGPDVPLEEIARRIAEELGVPILSVDFERDPEAPVVTIRVTFRSPAPGRLEERTVVLPRELLSAGGSA [r2_156_JUSTAS] | 0.759 ± 0.083 kcal/mol | 0.883 ± 0.068 kcal/mol | 0.942 ± 0.035 kcal/mol
13 | SAGGSGPSAPRTLTLDLPELPPGVKITVTVDFPGGRTFTGGVTERTATVDLPVPDGLEVESVTVQLESAGGS [r16_179_JUSTAS] | 0.00426 ± 0.16 kcal/mol | 0.0729 ± 0.085 kcal/mol | 0.00568 ± 0.1 kcal/mol
14 | SAGGSGTMKVEVSKDGGKLTVKSEFPSGGYGVSDDSGKLATLEYDPEKGTTTVTFPDGTVRTLTYPGSAGGS [r16_602_JUSTAS] | 0.647 ± 0.089 kcal/mol | 0.501 ± 0.12 kcal/mol | 0.0159 ± 0.11 kcal/mol
15 | SAGGSGVPLKITKVEVVGDKVVLTFEVPESLGTLKLNLTFELGGKPVEVEAEFDPETKYAVVVVGGSAGGSA [r2_261_TrMRF] | 2.52 ± 0.061 kcal/mol | 2.49 ± 0.092 kcal/mol | 2.37 ± 0.051 kcal/mol
16 | SAGGSHEYTHEYRIPGGYAIRIKTKWRFNPGNNNIQIEEPDIELVPLPPVPPPPVPPEDADKNGIPPDDSAG [r5_393_TrROS] | 2.29 ± 0.12 kcal/mol | 1.74 ± 0.12 kcal/mol | 1.19 ± 0.019 kcal/mol

Row | Sequence | folding stability dG unfold [1] | folding stability dG unfold [2] | folding stability dG unfold [3]
17 | SAGGSIEEIAETLRDLLAPPEYEVDVEVVEVEVDPINPRIKRVRLKATVYPPDGSSREIEFEIPFDELSAGG [r13_215_TrMRF] | 1.77 ± 0.029 kcal/mol | 1.71 ± 0.062 kcal/mol | 1.68 ± 0.042 kcal/mol
18 | SAGGSIEEILKAIPDAEKYEIDREKGIAYVTKKNTLYIVTVPRTSLPSPNGVLEPVSPISIKELPLESAGGS [r16_65_JUSTAS] | 0.538 ± 0.1 kcal/mol | 0.447 ± 0.089 kcal/mol | 0.128 ± 0.047 kcal/mol
19 | SAGGSIRELAKELAREFAEEHGIKEVEVKVEPYPNGWIKIEVSVEGPNGEPIGEWPIQIPIPPDQISAGGSA [r2_153_TrROS] | 0.74 ± 0.018 kcal/mol | 0.561 ± 0.11 kcal/mol | 0.199 ± 0.071 kcal/mol
20 | SAGGSITLPPVELPNGEKVTVTIEITPVPGAPPEERYRVTVTRTNPKTGTTETTELEVTRKGSVVTLESAGG [r13_208_JUSTAS] | 1.5 ± 0.022 kcal/mol | 1.88 ± 0.099 kcal/mol | 2.16 ± 0.059 kcal/mol
21 | SAGGSKAKIVEAEIVEFDPEKGKITIRIKANGKTFEIEFPPGVKKIKLKVKLENGEEKEIEITIKPSAGGSA [r2_132_TrROS_Hall] | 3.01 ± 0.14 kcal/mol | 2.59 ± 0.16 kcal/mol | 1.85 ± 0.044 kcal/mol
22 | SAGGSKEYEVKIVKIKEVKVENGKVYIKLEVEVRDKKTGKLLPSAEELAKELKKKFPNLKIEVKKPSAGGSA [r2_27_TrROS_Hall] | 2.4 ± 0.12 kcal/mol | 2.42 ± 0.24 kcal/mol | 2.24 ± 0.13 kcal/mol
23 | SAGGSKIEVKIEEENGTLTITVTVYDENGEQIAEITVTITLPAPKPPEKELVKAESPEEKEEALKQSAGGSA [r2_332_TrROS_Hall] | 1.8 ± 0.12 kcal/mol | 1.65 ± 0.35 kcal/mol | 2.25 ± 0.12 kcal/mol
24 | SAGGSKIKELLDAIKKAIEEGKEEVTIEVTLPNGSKIKFYPDGTIEITNKNGEKKTIKIKADDIKPSAGGSA [r2_97_TrROS_Hall] | 1.44 ± 0.1 kcal/mol | 1.99 ± 0.27 kcal/mol | 2.29 ± 0.23 kcal/mol
25 | SAGGSKIQISIWEDPENDYTWVTIWFPDDEELVDFFVEDIADLGVKKVETERFPDNGWRRITILIRSAGGSA [r2_358_TrROS] | 3.27 ± 0.066 kcal/mol | 2.97 ± 0.12 kcal/mol | 2.43 ± 0.063 kcal/mol
26 | SAGGSKKEIEALKGKTVTFPKIRDPKTNELLEPVKVKIVEVKYDKDTKKIYIKVEVDGKIYTFEIDSAGGSA [r2_314_TrROS_Hall] | 2.85 ± 0.062 kcal/mol | 2.5 ± 0.37 kcal/mol | 0.868 ± 0.19 kcal/mol
27 | SAGGSKKIVKEMKSKEVIDLAKKLKEKKDIIIVVKLNGKVKVLDLDKVKPIPDKNVKAIIEIKPKKKSAGGS [r16_628_TrMRF] | 0.901 ± 0.094 kcal/mol | 0.745 ± 0.29 kcal/mol | 0.571 ± 0.22 kcal/mol
28 | SAGGSKKKEEVKEIDVVLVEVSEEEALKLAEETGKAVIVVFPDGELRIFYPDGTVETIKLPDLEELSAGGSA [r2_34_TrROS_Hall] | 0.0647 ± 0.082 kcal/mol | 0.296 ± 0.21 kcal/mol | 0.377 ± 0.062 kcal/mol
29 | SAGGSKKPKKIIVIEIPENMTEEEIKKLAEELAKKLNIKKIVKIEKKKDGSVRIVLETKDGKKIEFSAGGSA [r2_168_TrROS_Hall] | 2.84 ± 0.035 kcal/mol | 2.63 ± 0.16 kcal/mol | 2.3 ± 0.089 kcal/mol
30 | SAGGSKKTIELVIKDKKTNKWLKITIEYDEETGEVTVTIYDKNGEVVKEIKMSKDELKKLLEKLGFSAGGSA [r2_115_TrROS_Hall] | 4.37 ± 0.16 kcal/mol | 4.28 ± 0.36 kcal/mol | 3.02 ± 0.22 kcal/mol
31 | SAGGSKKTYIVDSPEEIAKLIESIPEEEYVFAIKGRPDGKPVVEIYSKENIEEAIKENPEIIIPVGSAGGSA [r2_351_TrMRF] | 0.641 ± 0.068 kcal/mol | 0.479 ± 0.11 kcal/mol | 0.287 ± 0.058 kcal/mol

— the supplement of paper PMC12764529
